Assay results taken from publication PMC3751566.

Experiments:
[1] = target: syntaxin4 (UniProt P70452); assay: Munc18c IP, syntaxin4 blot; conditions: reference: wild type Munc18c (WT and R cells), insulin
[2] = target: syntaxin4 (UniProt P70452); assay: syntaxin4 IP, Munc18c blot (reciprocal); conditions: reference: wild type Munc18c (WT and R cells), insulin

Row | Substance | binding against the reference ([1]; sites Y521) | binding against the reference ([2]; sites Y521) | binding against the reference ([1]; sites Y218,Y219) | binding against the reference ([2]; sites Y218,Y219)
1 | Munc18c (from UniProt Q60770) Y521F, insulin | stronger | stronger |  | 
2 | Munc18c (from UniProt Q60770) Y218/219F, insulin |  |  | stronger | stronger
